Data set [1] deals with CCCC(=O)Oc1ccc2c(C)cc(=O)oc2c1. Description: purified protein. Conditions: 50 mM Tricine, 0.01% Triton X-100; 2 µM enzyme; substrate up to 8 µM.
For data set [2], the system named is CC(=O)CC(=O)SCCNC(=O)CCNC(=O)[C@H](O)C(C)(C)COP(=O)(O)OP(=O)(O)OC[C@H]1O[C@@H](n2cnc3c(N)ncnc32)[C@H](O)[C@@H]1OP(=O)(O)O. Description: purified protein. Conditions: 0.1 M Tris-HCl pH 8.0, 2 mM DTNB, 2 µM enzyme, substrate up to 1 mM.

A word on the Km: it is the concentration of substrate that gives half-maximal velocity. As usually defined, the kcat is the maximal rate divided by the concentration of active sites. Broadly, the kcat/Km is the turnover number divided by the Michaelis constant.

Turning to “PqsE (Pseudomonas aeruginosa UCBPP-PA14)”, in data set [1], the Km is listed as 8.1 ± 0.1 µM, the kcat amounted to 0.0197 ± 0.09 s⁻¹ and the kcat/Km was 2400 M⁻¹ s⁻¹. Besides, in data set [2], the Km was found to be 3200 ± 200 µM, the catalytic constant (kcat) came to 0.438 ± 0.05 s⁻¹ and the kcat/Km was found to be 140 M⁻¹ s⁻¹.

Source of the values: PMC12077149, “Evolution of PqsE as a Pseudomonas aeruginosa-specific regulator of LuxR-type receptors: insights from Pseudomonas and Burkholderia” (mBio, 2025).
